pKd: −log10 of the molar value. “And” between values parts separate entries of the source, which are not always exact repeats. Equal values may be shown once.
Target: SARS-CoV-2 Omicron BA.5 sublineage receptor binding domain (RBD) (SARS-CoV-2) (UniProt P0DTC2)
Assay: SPR

**Q.** What does the source list for DPP4_(270–295) peptide?
**A.** pKd: 5.92 and 5.82; koff: 0.0014 s⁻¹; kon: 1160 M⁻¹ s⁻¹

From paper PMC11279616 (Pharmaceuticals, 2024)
